Experimental data reported in article PMC7144946.

T1: Yap1 bZIP (Aspergillus fumigatus, UniProt Q4WMH0 135-234)
T1 sequence: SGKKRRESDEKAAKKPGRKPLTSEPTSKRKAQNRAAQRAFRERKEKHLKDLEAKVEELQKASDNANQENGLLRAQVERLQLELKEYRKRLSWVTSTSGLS

B1: cyp51A-293 (dsDNA)
DNA 1: GCTGAGCCGAATGAAAGTTGCCTAATTACTAAGGTGT
DNA 2: ACACCTTAGTAATTAGGCAACTTTCATTCGGCTCAGC
B2: cccA-369 (dsDNA)
DNA 1: AAATCCACCAATCAACGCCTCCGTGATTGTCAGCAAT
DNA 2: ATTGCTGACAATCACGGAGGCGTTGATTGGTGGATTT

What was measured:
Experiment in all cases: SPR
[1] = biological target: A. fumigatus CCAAT-binding complex (CBC) consisting of HapB(230–299), HapC(40–137) and HapE(47–164) (Aspergillus fumigatus)
Yap1 bZIP = biological target: T1, Yap1 bZIP
HapX dCBC-BD = HapX dCBC-BD (Aspergillus fumigatus, UniProt Q4WER3 59-158)

Molecule	apparent KD with cccA-369 promoter DNA (HapX on preformed CBC:DNA) [1]	apparent KD with cox6 promoter DNA (HapX on preformed CBC:DNA) [1]	apparent KD with hemH promoter DNA (HapX on preformed CBC:DNA) [1]	Kd (Yap1 bZIP)	binding signal (HapX dCBC-BD)
A. fumigatus HapX(24–158) (from UniProt Q4WER3 24-158) (domain or fragment)	0.4 nM	3600 nM	121 nM		
B1				13 nM	
B2				50 nM	3 fold increase vs HapX
